Test results: US20200292536A1

Key:
[1] = biological target: BCL2 peptide Ac-…-amide (amino acids 41-54 of human BCL2 with linkers) (human); test: imaging mass cytometry; peptide 2.50E-04 M in core
[2] = biological target: BCL2 peptide Ac-…-amide (amino acids 41-54 of human BCL2 with linkers) (human); test: imaging mass cytometry; peptide 2.50E-05 M in core
[3] = biological target: Bovine serum albumin (BSA; Ultra Pure) (bovine) (UniProt P02769); test: imaging mass cytometry; no peptide (background cores)
[4] = biological target: BCL2 peptide Ac-…-amide (amino acids 41-54 of human BCL2 with linkers) (human); test: imaging mass cytometry; peptide 2.50E-04 M in core; Ab 1 ug/ml
[5] = biological target: BCL2 peptide Ac-…-amide (amino acids 41-54 of human BCL2 with linkers) (human); test: imaging mass cytometry; peptide 2.50E-04 M in core; Ab 5 ug/ml
[6] = biological target: BCL2 peptide Ac-…-amide (amino acids 41-54 of human BCL2 with linkers) (human); test: imaging mass cytometry; peptide 2.50E-05 M in core; Ab 1 ug/ml
[7] = biological target: BCL2 peptide Ac-…-amide (amino acids 41-54 of human BCL2 with linkers) (human); test: imaging mass cytometry; peptide 2.50E-06 M in core; Ab 1 ug/ml
[8] = biological target: BCL2 peptide Ac-…-amide (amino acids 41-54 of human BCL2 with linkers) (human); test: imaging mass cytometry; peptide 2.50E-06 M in core; Ab 5 ug/ml
[9] = biological target: BCL2 peptide Ac-…-amide (amino acids 41-54 of human BCL2 with linkers) (human); test: imaging mass cytometry; peptide 2.50E-07 M in core; Ab 1 ug/ml
[10] = biological target: BCL2 peptide Ac-…-amide (amino acids 41-54 of human BCL2 with linkers) (human); test: imaging mass cytometry; peptide 2.50E-07 M in core; Ab 5 ug/ml
[11] = biological target: BCL2 peptide Ac-…-amide (amino acids 41-54 of human BCL2 with linkers) (human); test: imaging mass cytometry; peptide 2.50E-08 M in core; Ab 5 ug/ml
[12] = biological target: BCL2 peptide Ac-…-amide (amino acids 41-54 of human BCL2 with linkers) (human); test: imaging mass cytometry; peptide 2.50E-04 M in core; Ab 10 ug/ml
[13] = biological target: BCL2 peptide Ac-…-amide (amino acids 41-54 of human BCL2 with linkers) (human); test: imaging mass cytometry; peptide 2.50E-05 M in core; Ab 10 ug/ml
[14] = biological target: BCL2 peptide Ac-…-amide (amino acids 41-54 of human BCL2 with linkers) (human); test: imaging mass cytometry; peptide 2.50E-06 M in core; Ab 10 ug/ml
[15] = biological target: BCL2 peptide Ac-…-amide (amino acids 41-54 of human BCL2 with linkers) (human); test: imaging mass cytometry; peptide 2.50E-07 M in core; Ab 10 ug/ml
[16] = biological target: BCL2 peptide Ac-…-amide (amino acids 41-54 of human BCL2 with linkers) (human); test: imaging mass cytometry; peptide 2.50E-08 M in core; Ab 10 ug/ml
[17] = biological target: Bovine serum albumin (BSA; Ultra Pure) (bovine) (UniProt P02769); test: imaging mass cytometry; no peptide (background core); Ab 1 ug/ml
[18] = biological target: Bovine serum albumin (BSA; Ultra Pure) (bovine) (UniProt P02769); test: imaging mass cytometry; no peptide (background core); Ab 5 ug/ml
[19] = biological target: Bovine serum albumin (BSA; Ultra Pure) (bovine) (UniProt P02769); test: imaging mass cytometry; no peptide (second background core); Ab 10 ug/ml
[20] = biological target: BCL2 peptide Ac-…-amide (amino acids 41-54 of human BCL2 with linkers) (human); test: imaging mass cytometry; peptide 2.50E-04 M in core (second core); Ab 1 ug/ml
[21] = biological target: BCL2 peptide Ac-…-amide (amino acids 41-54 of human BCL2 with linkers) (human); test: imaging mass cytometry; peptide 2.50E-05 M in core (second core); Ab 1 ug/ml
[22] = biological target: BCL2 peptide Ac-…-amide (amino acids 41-54 of human BCL2 with linkers) (human); test: imaging mass cytometry; peptide 2.50E-05 M in core (second core); Ab 5 ug/ml
[23] = biological target: BCL2 peptide Ac-…-amide (amino acids 41-54 of human BCL2 with linkers) (human); test: imaging mass cytometry; peptide 2.50E-06 M in core (second core); Ab 1 ug/ml
[24] = biological target: BCL2 peptide Ac-…-amide (amino acids 41-54 of human BCL2 with linkers) (human); test: imaging mass cytometry; peptide 2.50E-07 M in core (second core); Ab 1 ug/ml
[25] = biological target: BCL2 peptide Ac-…-amide (amino acids 41-54 of human BCL2 with linkers) (human); test: imaging mass cytometry; peptide 2.50E-07 M in core (second core); Ab 5 ug/ml
[26] = biological target: BCL2 peptide Ac-…-amide (amino acids 41-54 of human BCL2 with linkers) (human); test: imaging mass cytometry; peptide 2.50E-08 M in core (second core); Ab 1 ug/ml
[27] = biological target: BCL2 peptide Ac-…-amide (amino acids 41-54 of human BCL2 with linkers) (human); test: imaging mass cytometry; peptide 2.50E-08 M in core (second core); Ab 5 ug/ml
[28] = biological target: BCL2 peptide Ac-…-amide (amino acids 41-54 of human BCL2 with linkers) (human); test: imaging mass cytometry; peptide 2.50E-05 M in core (second core); Ab 10 ug/ml
[29] = biological target: BCL2 peptide Ac-…-amide (amino acids 41-54 of human BCL2 with linkers) (human); test: imaging mass cytometry; peptide 2.50E-06 M in core (second core); Ab 10 ug/ml
[30] = biological target: BCL2 peptide Ac-…-amide (amino acids 41-54 of human BCL2 with linkers) (human); test: imaging mass cytometry; peptide 2.50E-07 M in core (second core); Ab 10 ug/ml
[31] = biological target: BCL2 peptide Ac-…-amide (amino acids 41-54 of human BCL2 with linkers) (human); test: imaging mass cytometry; peptide 2.50E-08 M in core (second core); Ab 10 ug/ml

Sequence of UniProt P02769 (P02769 25-607 limits assumed): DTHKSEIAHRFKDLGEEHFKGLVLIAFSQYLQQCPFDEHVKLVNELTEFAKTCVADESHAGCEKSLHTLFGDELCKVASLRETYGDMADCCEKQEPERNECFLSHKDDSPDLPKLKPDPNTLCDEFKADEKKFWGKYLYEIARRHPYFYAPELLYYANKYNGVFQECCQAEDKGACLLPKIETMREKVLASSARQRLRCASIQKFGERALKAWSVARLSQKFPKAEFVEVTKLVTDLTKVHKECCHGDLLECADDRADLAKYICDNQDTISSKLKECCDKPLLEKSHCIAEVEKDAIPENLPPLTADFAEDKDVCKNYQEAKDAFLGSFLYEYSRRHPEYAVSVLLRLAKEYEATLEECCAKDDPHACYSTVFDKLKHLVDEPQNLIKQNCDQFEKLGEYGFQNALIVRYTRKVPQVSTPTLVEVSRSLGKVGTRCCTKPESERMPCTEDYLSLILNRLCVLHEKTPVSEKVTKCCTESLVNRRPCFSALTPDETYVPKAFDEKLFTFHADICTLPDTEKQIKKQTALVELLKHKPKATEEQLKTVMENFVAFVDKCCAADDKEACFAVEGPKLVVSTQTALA
Sequence of BCL2 peptide Ac-…-amide (amino acids 41-54 of human BCL2 with linkers) (human) (peptide, as listed by the source): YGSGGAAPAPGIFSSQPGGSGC

Fluidigm EPR17509-^146Nd antibody
Average Ion count [1]: 58300 ion counts | Ion count above background [1]: 56900 ion counts | Moles ^146Nd Ab detected per ROI [1]: 3.2e-17 mol | ^146Nd Ab/peptide [1]: 0.14% | Average Ion count [2]: 32600 ion counts | Ion count above background [2]: 31500 ion counts | Moles ^146Nd Ab detected per ROI [2]: 1.76e-17 mol | ^146Nd Ab/peptide [2]: 0.78% | Average Ion count [3]: 1280 ion counts | Integrated Ion counts (per 150 micron square ROI) [4]: 59300 ion counts | Integrated Ion counts (per 150 micron square ROI) [5]: 35300 ion counts | Integrated Ion counts (per 150 micron square ROI) [6]: 32400 ion counts | Integrated Ion counts (per 150 micron square ROI) [7]: 7750 ion counts | Integrated Ion counts (per 150 micron square ROI) [8]: 4290 ion counts | Integrated Ion counts (per 150 micron square ROI) [9]: 1580 ion counts | Integrated Ion counts (per 150 micron square ROI) [10]: 1370 ion counts | Integrated Ion counts (per 150 micron square ROI) [11]: 976 ion counts | Integrated Ion counts (per 150 micron square ROI) [12]: 87400 ion counts | Integrated Ion counts (per 150 micron square ROI) [13]: 39300 ion counts | Integrated Ion counts (per 150 micron square ROI) [14]: 789000 ion counts | Integrated Ion counts (per 150 micron square ROI) [15]: 1550 ion counts | Integrated Ion counts (per 150 micron square ROI) [16]: 1230 ion counts | Integrated Ion counts (per 150 micron square ROI) [17]: 1350 ion counts | Integrated Ion counts (per 150 micron square ROI) [18]: 1080 ion counts | Integrated Ion counts (per 150 micron square ROI) [19]: 1160 ion counts | Integrated Ion counts (per 150 micron square ROI) [20]: 42200 ion counts | Integrated Ion counts (per 150 micron square ROI) [21]: 43900 ion counts | Integrated Ion counts (per 150 micron square ROI) [22]: 15100 ion counts | Integrated Ion counts (per 150 micron square ROI) [23]: 7700 ion counts | Integrated Ion counts (per 150 micron square ROI) [24]: 2380 ion counts | Integrated Ion counts (per 150 micron square ROI) [25]: 1400 ion counts | Integrated Ion counts (per 150 micron square ROI) [26]: 1410 ion counts | Integrated Ion counts (per 150 micron square ROI) [27]: 2070 ion counts | Integrated Ion counts (per 150 micron square ROI) [28]: 48700 ion counts | Integrated Ion counts (per 150 micron square ROI) [29]: 3910 ion counts | Integrated Ion counts (per 150 micron square ROI) [30]: 1760 ion counts | Integrated Ion counts (per 150 micron square ROI) [31]: 1720 ion counts
